Data reported in paper PMC2726290, “Decoding of Methylated Histone H3 Tail by the Pygo-BCL9 Wnt Signaling Complex” (Molecular Cell, 2008).

How the values were obtained:
Assay in all cases: ITC; protein dialysed into 100 mM NaCl, 25 mM Tris-HCl (pH 8.0), 10 uM ZnCl2, 2 mM beta-mercaptoethanol; histone peptides with free PHD or PHD-HD1 complex; one-site model
[1] = target: dPHD-HD1 complex (Drosophila Pygo PHD 747-808 with Lgs HD1 316-350) (Drosophila) (UniProt Q9V9W8)
[2] = target: hPHD-HD1 complex (hPygo1 PHD 333-402 with hBCL9 HD1) (human) (UniProt Q9Y3Y4)
Chain of hPHD-HD1 complex (hPygo1 PHD 333-402 with hBCL9 HD1) (human) (Q9Y3Y4 333-402, chain 1 of 2): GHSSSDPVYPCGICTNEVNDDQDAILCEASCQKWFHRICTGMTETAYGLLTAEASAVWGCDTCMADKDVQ
Chain of hPHD-HD1 complex (hPygo1 PHD 333-402 with hBCL9 HD1) (human) (O00512 177-205, chain 2 of 2, further chain): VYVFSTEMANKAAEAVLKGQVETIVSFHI

[3] = target: hPygo1 PHD finger (amino acids 333-402), free (human) (UniProt Q9Y3Y4)
Chain of hPygo1 PHD finger (amino acids 333-402), free (human) (Q9Y3Y4 333-402): as the sequence (Q9Y3Y4 333-402, chain 1 of 2) above

Chain of dPHD-HD1 complex (Drosophila Pygo PHD 747-808 with Lgs HD1 316-350) (Drosophila) (Q9V9W8 747-808, chain 1 of 2): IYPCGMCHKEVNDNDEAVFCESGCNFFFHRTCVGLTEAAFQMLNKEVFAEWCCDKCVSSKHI
Chain of dPHD-HD1 complex (Drosophila Pygo PHD 747-808 with Lgs HD1 316-350) (Drosophila) (Q961D9 316-350, chain 2 of 2, further chain): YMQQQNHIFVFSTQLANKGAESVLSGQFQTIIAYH

Substance	Kd [1] [µM]	Kd [2] [µM]	Kd [3] [µM]
H3K4me1 15-mer histone H3 tail peptide (from UniProt P68431 2-16)	22	2.9	9
H3K4me2 15-mer histone H3 tail peptide (from UniProt P68431 2-16)	13	0.9	2.4
H3K4me3 15-mer histone H3 tail peptide (from UniProt P68431 2-16)	23		
